How the values were obtained:
Test in all cases: cell-based or functional assay
[1] = target: recombinant hIGFBP-3 standard (R&D Systems; synthesized in NSO mouse myeloma cells) (human) (UniProt P17936)
[2] = target: 6m-hIGFBP-3 (I56A, Y57A, R75A, L77A, L80A, L81A mutant CHO-hIGFBP-3) (human) (UniProt P17936)
[3] = target: wild-type CHO-hIGFBP-3 (6xHis/Xpress/enterokinase-tagged mature human IGFBP-3 expressed in CHO-K1 cells from pRSV-Sec-BP3) (human) (UniProt P17936)
wild-type CHO-hIGFBP-3 (6xHis/Xpress/enterokinase-tagged mature human IGFBP-3 expressed in CHO-K1 cells from pRSV-Sec-BP3) (human), sequence (P17936 other isoform, or with tags, fused parts or gaps limits assumed): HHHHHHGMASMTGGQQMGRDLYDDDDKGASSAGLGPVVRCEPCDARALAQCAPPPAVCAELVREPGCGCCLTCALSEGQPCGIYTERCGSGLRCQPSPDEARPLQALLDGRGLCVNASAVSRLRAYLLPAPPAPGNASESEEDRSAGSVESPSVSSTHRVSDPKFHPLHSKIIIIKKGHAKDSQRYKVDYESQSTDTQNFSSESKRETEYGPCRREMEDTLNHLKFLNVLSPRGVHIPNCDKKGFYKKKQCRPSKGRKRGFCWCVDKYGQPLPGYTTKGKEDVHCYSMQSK

recombinant hIGFBP-3 standard (R&D Systems; synthesized in NSO mouse myeloma cells) (human), sequence (P17936 28-291 limits assumed): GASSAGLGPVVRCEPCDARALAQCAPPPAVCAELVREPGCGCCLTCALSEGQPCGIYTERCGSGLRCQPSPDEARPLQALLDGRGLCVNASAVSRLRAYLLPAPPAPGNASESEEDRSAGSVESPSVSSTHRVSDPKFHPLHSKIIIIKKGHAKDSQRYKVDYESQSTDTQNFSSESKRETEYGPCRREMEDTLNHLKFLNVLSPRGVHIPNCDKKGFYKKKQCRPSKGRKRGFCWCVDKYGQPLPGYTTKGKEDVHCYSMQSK
6m-hIGFBP-3 (I56A, Y57A, R75A, L77A, L80A, L81A mutant CHO-hIGFBP-3) (human), sequence (P17936 other isoform, or with tags, fused parts or gaps I56A Y57A R75A L77A L80A L81A I56A Y57A R75A L77A L80A L81A): as the sequence (P17936 other isoform, or with tags, fused parts or gaps limits assumed) above, with I83A, Y84A, R102A, L104A, L107A, L108A counted along it

A percentage of floating PC-3 cells that were dead, with Leu^60-IGF-I [1] of 14%, a percentage of floating PC-3 cells that were dead, without Leu^60-IGF-I [1] of 82% and a percentage of floating PC-3 cells that were dead, with Leu^60-IGF-I [2] of 80% were found for “Leu^60-IGF-I (IGF-I analogue in which leucine is substituted for tyrosine at position 60; expressed in Escherichia coli) (from UniProt P05019 49-118) (ligand)” in this work. The percentage of floating PC-3 cells that were dead, without Leu^60-IGF-I [2] was 86%, the percentage of floating PC-3 cells that were dead, with Leu^60-IGF-I [3] was 14% and the percentage of floating PC-3 cells that were dead, without Leu^60-IGF-I [3] was 82%.
